Results: patent US20140221620A1 (PERSEUS PROTEOMICS, published 2014)

Key:
Assay in all cases: Western blot, E. coli lysate, reducing gel
[1] = biological target: T1, CDH3 protein Fragment 2 (positions 132 to 348 of SEQ ID NO: 38) (human, UniProt P22223 132-348)
T1 construct: Expressed in E. coli Rosetta 2; the lysate was run on a reducing gel and blotted; not shown: N-terminal fusion part supplied by the vector pCold TF (His tag, trigger factor, linker to the KpnI site)
Procedure: (§1) The above-described Escherichia coli lysate, in which each of the above-mentioned CDH3 protein fragments had been expressed, was charged to 5%-20% gradient gel (Bio-Rad) under reductive conditions, followed by performing electrophoresis. Thereafter, using a blotting device (Bio-Rad), the resultant was transferred on Immobilon P membrane (Millipore). The transfer membrane was lightly washed with TBS-T (0.05% Tween 20, TBS), and it was then shaken in […] BSA-containing TBS for 1 hour. […] The obtained mixture was shaken for 1 hour. Thereafter, the reaction product was washed with TBS-T, and a HRP-anti-mouse IgG antibody (GE Healthcare Biosciences) diluted with 10% Block Ace-containing TBS-T was added thereto, followed by shaking the obtained mixture for 1 hour. Subsequently, the reaction product was washed with TBS-T. Using ECL-Plus (GE Healthcare Biosciences), color development was detected with X-ray film RX-u (Fujifilm Corporation) in accordance with the instructions provided by the manufacturer.

[2] = biological target: T2, CDH3 protein Fragment 3 (positions 237 to 461 of SEQ ID NO: 38) (human, UniProt P22223 237-461)
T2 construct: Expressed in E. coli Rosetta 2; the lysate was run on a reducing gel and blotted; not shown: N-terminal fusion part supplied by the vector pCold TF (His tag, trigger factor, linker to the KpnI site)
T2 sequence (P22223 237-461 limits assumed): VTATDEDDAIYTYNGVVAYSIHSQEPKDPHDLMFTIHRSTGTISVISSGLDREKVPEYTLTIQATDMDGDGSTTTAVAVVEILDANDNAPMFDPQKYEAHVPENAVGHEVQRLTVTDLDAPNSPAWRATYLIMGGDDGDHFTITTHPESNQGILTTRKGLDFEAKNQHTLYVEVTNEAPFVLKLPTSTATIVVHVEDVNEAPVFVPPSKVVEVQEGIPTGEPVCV
Procedure: as §1

[3] = biological target: T3, CDH3 protein Fragment 5 (positions 462 to 654 of SEQ ID NO: 38) (human, UniProt P22223 462-654)
T3 construct: Expressed in E. coli Rosetta 2; the lysate was run on a reducing gel and blotted; not shown: N-terminal fusion part supplied by the vector pCold TF (His tag, trigger factor, linker to the KpnI site)
T3 sequence (P22223 462-654 limits assumed): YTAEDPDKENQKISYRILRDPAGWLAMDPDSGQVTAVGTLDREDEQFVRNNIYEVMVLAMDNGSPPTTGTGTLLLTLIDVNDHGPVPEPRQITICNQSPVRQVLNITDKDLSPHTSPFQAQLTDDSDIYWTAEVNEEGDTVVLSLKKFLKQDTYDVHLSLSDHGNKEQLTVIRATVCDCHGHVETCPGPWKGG
Procedure: as §1

[4] = biological target: T4, CDH3 protein Fragment 4 (positions 349 to 550 of SEQ ID NO: 38) (human, UniProt P22223 349-550)
T4 construct: Expressed in E. coli Rosetta 2; the lysate was run on a reducing gel and blotted; not shown: N-terminal fusion part supplied by the vector pCold TF (His tag, trigger factor, linker to the KpnI site)
T4 sequence (P22223 349-550 limits assumed): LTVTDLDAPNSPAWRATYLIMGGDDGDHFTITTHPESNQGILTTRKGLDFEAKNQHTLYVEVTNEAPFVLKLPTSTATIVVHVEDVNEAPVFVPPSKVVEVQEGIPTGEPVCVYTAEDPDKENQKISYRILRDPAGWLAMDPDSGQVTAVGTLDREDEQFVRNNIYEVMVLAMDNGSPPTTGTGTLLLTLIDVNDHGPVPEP
Procedure: as §1

Measured: binding result

T1 sequence (P22223 132-348 limits assumed): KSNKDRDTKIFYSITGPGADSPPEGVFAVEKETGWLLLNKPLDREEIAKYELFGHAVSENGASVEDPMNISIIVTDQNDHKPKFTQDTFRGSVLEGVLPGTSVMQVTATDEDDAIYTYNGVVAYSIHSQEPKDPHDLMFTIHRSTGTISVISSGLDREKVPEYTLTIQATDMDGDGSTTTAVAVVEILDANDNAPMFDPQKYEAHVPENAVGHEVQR

B1: mouse antibody PPAT-057-17 (antibody, V domains shown)
VH: QVKLEESGPVLVAPSQSLSITCTVSGFSLTSYGVHWIRHPPGKGLEWLGVIWAGGNTIYNSALMSRLNISKDNSKSQVFLKMNSLQSDDSAMYYCAKPHYGDYAGFYALDHWGQGTSVTVSS
VL: DVQITQSPSYLAASPGETININCRASKRISKYLAWYQEKPGKTNRLLIYSGSTLQSGIPSRFSGSGSGTDFTLTISSLEPEDFAMYYCQQHNEYPWTFGGGTKLEIK
notes: Mouse monoclonal IgG from a hybridoma; kappa L chain primers were used
no binding: all assays above
